Results on five molecules are retold here after patent US20220002363A1, “COMPOSITIONS AND METHODS FOR TREATING PULMONARY DISEASE” (United States Government As Represented By The Department …, priority 2020, published 2022).

One experiment concerns HPAEpiC. The following applies: cited from earlier work.
A further experiment concerns LA4 monolayer. The conditions noted are these: LA4 cells; cited from earlier work.
The target in the next experiment is T1, biotinylated WT-sFasL (human, UniProt P48023 103-281, biotinylated with EZ-Link Sulfo-NHS-LC-Biotin (sites not given)).
T1 construct: range 103-281; Same protein as WT-sFasL, chemically biotinylated; also called biotinylated wild type sFasL
T1 sequence (looked up): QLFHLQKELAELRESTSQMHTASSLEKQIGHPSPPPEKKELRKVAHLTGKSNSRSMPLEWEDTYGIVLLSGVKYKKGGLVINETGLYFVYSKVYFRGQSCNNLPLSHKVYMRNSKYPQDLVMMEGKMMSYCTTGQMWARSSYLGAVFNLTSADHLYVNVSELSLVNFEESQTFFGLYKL
The experiment in a line: mixture captured on streptavidin-coated wells, detected with HRP anti-FLAG antibody. On the procedure:
(§1) Serial 3-fold dilutions of FLAG tagged mut-sFasL were mixed with biotinylated WT sFasL (60 ng). The mixtures were incubated at room temperature for 15 minutes and applied to streptavidin-coated wells. FLAG tags were detected with HRP anti-FLAG mAb. There was a dose-dependent increase in FLAG signal in wells incubated with the biotinylated WT sFasL+ and the mut-sFasL-FLAG mixture, showing the formation of complexes of WT and mut-sFasL. […] Data shown as ratio of the absorbance at 450 nm of each experimental condition to that of media only. Data were generated from three separate experiments, each done in duplicate, and were analyzed by 2-way ANOVA with Dunnet's post hoc analysis; comparisons were made to 0 ng/mL for each condition. Each dot represents individual data, lines represent means±SD. *=P<0.05; **=P<0.01, ***P<0.001.
The mut-sFasL forms complexes with WT sFasL. In order to be active, sFasL must form trimers or higher order multimers. Therefore, it was tested whether the mut-sFasL forms complexes with WT-sFasL. The mixture was incubated in streptavidin-coated well to capture the biotinylated WT-sFasL. After washing unbound material, FLAG was detected using an anti-FLAG antibody, which would detect FLAG-tagged mut-sFasL complexed with biotinylated WT-sFasL. […]

For a further experiment, the target named is T2, recombinant human Fas (Homo sapiens, UniProt P25445).
T2 construct: recombinant human soluble Fas receptors (PeproTech, Rocky Hill, N.J.); purchased PeproTech
T2 sequence (P25445 26-173 limits assumed): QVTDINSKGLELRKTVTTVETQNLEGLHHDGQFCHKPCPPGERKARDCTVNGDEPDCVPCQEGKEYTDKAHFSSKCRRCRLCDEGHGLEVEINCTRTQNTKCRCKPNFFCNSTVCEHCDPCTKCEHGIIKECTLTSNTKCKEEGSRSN
The experiment can be described thus: Competition assay: binding of biotinylated WT sFasL to plate-coated recombinant human Fas. The following applies: biotinylated WT-sFasL 70 ng/mL, Fas coated at 250 ng/mL, serial 3-fold dilutions. How it is done:
The mixtures were incubated for 2 hours in 96-well plates pre-coated with recombinant hsFas (250 ng/ml). After washing unbound material, biotin was detected using HRP conjugated Streptavidin. […] The sFasL bound to Fas was detected using polyclonal anti-human FasL antibodies. […] Different molar ratios of the Fas-activating antibody CH-11 and mut-sFasL were added, and caspase 3/7 activity measured after 5 hours. […] Data represent the results from three separate experiments, each done in duplicate, and were analyzed by 2-way ANOVA with Sidak's post hoc analysis. […] Each dot represents individual data; lines represent means±SD. *=P<0.05; **=P<0.01, ***P<0.001.
Antibodies and Reagents. […] FLAG tagged mut-sFasL was detected using HRP anti-FLAG monoclonal antibody (Sigma-Aldrich, Cat #A85920). […]
WT-sFasL inhibition occurs prior to receptor binding. […] Recombinant human Fas at 250 ng/mL were coated and the binding of a fixed concentration of biotinylated WT-sFasL (70 ng/mL) were measured in the presence of serial 3-fold dilutions of either WT-sFasL or mut-sFasL. […] Serial dilutions of either WT-sFasL or mut-sFasL were incubated in wells coated with recombinant human Fas, 5 μg/mL, and after washing, detected sFasL bound to Fas using polyclonal anti-FasL antibodies. […]

Experiment [1] concerns the target T3, biotinylated WT sFasL (Homo sapiens, UniProt P48023).
T3 construct: biotin (chemical label, EZ-Link Sulfo-NHS-LC-Biotin); made in house; host or cells: FreeStyle 293-F cells
T3 sequence (P48023 103-281): T1 sequence (looked up)
The experiment can be described thus: Complex formation of FLAG tagged mut-sFasL with biotinylated WT sFasL on streptavidin-coated wells. The format is binding. The following applies: fixed biotinylated WT sFasL (60 ng), increasing FLAG-tagged mut-sFasL. How it is done:
as §1, with “mAb.” for “mAb. There was a dose-dependent increase in FLAG signal in wells incubated with the biotinylated WT sFasL+ and the mut-sFasL-FLAG mixture, showing the formation of complexes of WT and mut-sFasL.”
(§2) Antibodies and Reagents. To prepare immunoaffinity columns, mouse monoclonal anti-human FasL antibodies, clone 100419 (R&D System, Cat #MAB126, RRID:AB 2246667, Minneapolis, Minn.), were used. For the Fas-FasL binding assay, recombinant human soluble Fas receptors (PeproTech, Rocky Hill, N.J.) and biotinylated goat anti-human FasL antibodies (PeproTech Cat #500-P184bt-50 ug, RRID:AB 148184) were used. Mouse anti-human Fas (CD95) monoclonal IgM antibody, clone CH-11 and its isotype control antibody, clone 3D12, were obtained from MBL, Nagoya, Japan (MBL International Cat #SY-001, RRID:AB 591016 and Cat #M077-3, RRID:AB 593057, respectively). FLAG tagged mut-sFasL was detected using HRP anti-FLAG monoclonal antibody (Sigma-Aldrich, Cat #A85920). Unless otherwise indicated, the other chemicals were purchased from Sigma-Aldrich (St. Louis, Mo.).
(§3) Biotinylation of sFasL. Immunoaffinity purified WT-sFasL was biotinylated with No-Weight Format EZ-Link Sulfo-NHS-LC-Biotin (Pierce, Rockford, Ill., Cat #21327) following the manufacturer's instructions. To capture biotinylated WT-sFasL in the mixtures of biotinylated WT-sFasL and mut-sFasL-FLAG, Streptavidin-variant (Strep-Tactin XT) coated 96-well plates (iba, Gottingen, Germany, Cat #2-4101-001) were used.
(§4) The mut-sFasL forms complexes with WT sFasL. […] After washing unbound material, FLAG was detected using an anti-FLAG antibody, which would detect FLAG-tagged mut-sFasL complexed with biotinylated WT-sFasL.

The test system of experiment [2] is biotinylated WT sFasL. Described as above. Type of experiment: binding, human. The conditions noted are these: FLAG-tagged mut-sFasL by itself. On the procedure:
as §1, with “mAb.” for “mAb. There was a dose-dependent increase in FLAG signal in wells incubated with the biotinylated WT sFasL+ and the mut-sFasL-FLAG mixture, showing the formation of complexes of WT and mut-sFasL.”
as §2, §3, §4

Residue numbers refer to the chain shown, from its start. Where a SMILES comes first, the peptide text is derived from it. The star is where a group is joined. Cbz = O=C(OCc1ccccc1)*; CH2F = FC*

Turning to `COC(=O)CC[C@H](NC(=O)[C@H](CC(=O)OC)NC(=O)OCc1ccccc1)C(=O)N[C@H](C(=O)N[C@@H](CC(=O)OC)C(=O)CF)C(C)C` [zDEVD.fmk, reference compound], the “reversal of sFasL effect on monolayer permeability and ZO-1/occludin expression” value with HPAEpiC (HPAEpiC, pretreatment) is “reversed the effect of sFasL on HPAEpiC monolayer permeability and ZO-1/occludin expression”. `CC(NC(=O)C(NC(=O)OCc1ccccc1)C(C)C)C(=O)NC(CC(=O)O)C(=O)CF` (stereo not drawn) [zVAD] (Cbz-Val-Ala-Asp-CH2F; configuration not given here): the “reversal of cell death and monolayer permeability induced by Jo2” value in the experiment with LA4 monolayer was “reversed cell death and monolayer permeability induced by Jo2”.

B1: FLAG tagged mut-sFasL (ligand, human, UniProt P48023 103-281, looked up)
chain: T1 sequence (looked up) with H4A, K7A, E8A, E11A, R13A, E14A, H20A, E26A
notes: range 103-281; C-terminal FLAG tag; also called mut-sFasL-FLAG; 8-mut sFasL-FLAG; not shown: FLAG tag fused in frame after amino acid 281
In the case of B1, the binding result in the experiment with biotinylated WT-sFasL is “binds”.

B2: WT-sFasL: wild type human soluble Fas ligand, amino acids 103 to 281, expressed in FreeStyle 293-F cells (protein, UniProt P48023 103-281, looked up, fragment)
chain: T1 sequence (looked up)
Consider B2, for which, in the experiment with recombinant human Fas, the “effect of increasing competitor concentration on binding of biotinylated WT-sFasL to Fas” value is on record as “binding of biotinylated WT-sFasL to Fas decreased”. In addition, the “caspase 3 induction” value in the experiment on HPAEpiC (HPAEpiC exposed to long form of sFasL) was “induced caspase 3”.

B3: mut-sFasL-FLAG: 8-mut sFasL with FLAG tag at the 3′-end of the 281th amino acid coding sequence (protein)
chain: T1 sequence (looked up) with H4A, K7A, E8A, E11A, R13A, E14A, H20A, E26A
modifications: left off: small tags and cut ends
In the case of B3, the “FLAG signal (complexes with WT sFasL)” value in the experiment with biotinylated WT sFasL [1] is “dose-dependent increase in FLAG signal”. Besides, the “binding to streptavidin-coated plate without biotinylated WT sFasL” value is “did not bind to the streptavidin-coated plates” with biotinylated WT sFasL [2] and “did not bind to the plate, even at high concentrations” in the experiment on biotinylated WT sFasL [2] (listed as FLAG-tagged mut-sFasL).
